# Literature values in PMC3511906.
# Read-outs that look alike come from different tables or passages of the source.
# What was measured:
# CXCR1 (Mus musculus) [1] = biological target: CXCR1 (Mus musculus) (UniProt Q810W6)
# CXCR1 (Mus musculus) [2] = biological target: CXCR1 (Mus musculus) (UniProt Q810W6); remark: listed apart in the source
# CXCR2 (Mus musculus) = CXCR2 (Mus musculus) (UniProt P35343)
# CXCR2 (Mus musculus), sequence (P35343 whole entry): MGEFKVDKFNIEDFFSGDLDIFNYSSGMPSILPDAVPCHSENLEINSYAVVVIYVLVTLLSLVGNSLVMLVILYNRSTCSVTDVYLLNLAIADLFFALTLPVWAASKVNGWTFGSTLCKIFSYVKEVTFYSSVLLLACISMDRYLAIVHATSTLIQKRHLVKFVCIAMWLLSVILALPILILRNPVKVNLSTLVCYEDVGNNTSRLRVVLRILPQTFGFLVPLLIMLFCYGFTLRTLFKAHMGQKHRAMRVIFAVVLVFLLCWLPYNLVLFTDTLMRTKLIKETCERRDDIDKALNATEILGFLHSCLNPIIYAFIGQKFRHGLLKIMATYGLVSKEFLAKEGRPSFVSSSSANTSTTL
# MIP-2, sequence (P10889 28-100): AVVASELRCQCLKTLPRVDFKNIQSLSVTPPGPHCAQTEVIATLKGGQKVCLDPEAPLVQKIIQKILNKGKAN
# CXCR1 (Mus musculus), sequence (Q810W6 whole entry): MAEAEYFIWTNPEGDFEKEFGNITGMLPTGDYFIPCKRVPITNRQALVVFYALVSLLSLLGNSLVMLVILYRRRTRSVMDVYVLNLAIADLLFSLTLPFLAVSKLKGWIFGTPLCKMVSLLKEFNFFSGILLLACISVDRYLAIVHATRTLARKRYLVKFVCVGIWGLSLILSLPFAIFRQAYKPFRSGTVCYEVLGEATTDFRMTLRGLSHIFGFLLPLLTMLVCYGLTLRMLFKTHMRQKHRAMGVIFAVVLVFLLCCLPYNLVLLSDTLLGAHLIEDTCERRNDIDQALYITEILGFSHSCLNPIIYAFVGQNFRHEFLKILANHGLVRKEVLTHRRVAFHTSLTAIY
# CXCL8, sequence (P10145 28-99): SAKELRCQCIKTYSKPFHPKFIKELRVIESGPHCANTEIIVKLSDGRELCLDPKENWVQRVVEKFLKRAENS
Kd (CXCR1 (Mus musculus) [1]) [nM],Kd (CXCR1 (Mus musculus) [2]) [nM],Kd (CXCR2 (Mus musculus)) [nM],Substance
10,–,–,CXCL8 (from UniProt P10145)
–,643,3.5,MIP-2 (from UniProt P10889)
